# Assay results from patent publication US8399206B2, “Methods for diagnosis, prognosis and methods of treatment” (Nodality, Inc., priority 2008, dated 2013).
# B1: FLT-3L: fms-like tyrosine kinase receptor-3 ligand (protein, UniProt P49771 27-235, looked up)
# Fms-related tyrosine kinase 3 …: TQDCSFQHSPISSDFAVKIRELSDYLLQDYPVTVASNLQDEELCGGLWRLVLAQRWMERLKTVAGSKMQGLLERVNTEIHFVTKCAFQPPPSCLRFVQTNISRLLQETSEQLVALKPWITRQNFSRCLELQCQPDSSTLPPPWSPRPLEATAPTAPQPPLLLLLLLPVGLLLLAAAWCLHWQRTRRRTPRPGEQVPPVPSPQDLLLVEH
# B2: IL-27: interleukin-27 (protein, UniProt Q8NEV9 29-243; Q14213 21-229, looked up)
# Interleukin-27 subunit alpha: FPRPPGRPQLSLQELRREFTVSLHLARKLLSEVRGQAHRFAESHLPGVNLYLLPLGEQLPDVSLTFQAWRRLSDPERLCFISTTLQPFHALLGGLGTQGRWTNMERMQLWAMRLDLRDLQRHLRFQVLAAGFNLPEEEEEEEEEEEEERKGLLPGALGSALQGPAQVSWPQLLSTYRLLHSLELVLSRAVRELLLLSKAGHSVWPLGFPTLSPQP
# Interleukin-27 subunit beta: RKGPPAALTLPRVQCRASRYPIAVDCSWTLPPAPNSTSPVSFIATYRLGMAARGHSWPCLQQTPTSTSCTITDVQLFSMAPYVLNVTAVHPWGSSSSFVPFITEHIIKPDPPEGVRLSPLAERQLQVQWEPPGSWPFPEIFSLKYWIRYKRQGAARFHRVGPIEATSFILRAVRPRARYYVQVAAQDLTDYGELSDWSLPATATMSLGK
# Columns and labels:
# [1] = system: leukemic myeloblasts and healthy BMMb; test: SCNP in AML patients aged >60 years (ECOG E3999), FLT3-ITD vs FLT3-WT vs healthy BMMb (Example 12); format: cell-based, human; details: FLT3-ITD blasts compared to BMMb
# Source text: Modulated single cell network profiling (SCNP) was used to evaluate the activation state of intracellular signaling molecules (i.e. nodes), including phosphorylated (p)-Akt, p-Erk, p-S6, p-Stat5 and cleaved-PARP, at baseline and after treatment with specific modulators [including cytokines (such as IL-27) growth factors (such as FLT3 ligand) and drugs (such a cytosine arabinoside)] in 7 healthy bone marrow mononuclear blasts (BMMb) and leukemic myeloblasts, characterized for FLT3 receptor mutation status, from 44 AML patients (38 FLT-WT and 6 FLT3-ITD), aged>60 years (ECOG trial E3999). A total of 64 node-metrics were analyzed.
# AML blasts = test: SCNP / phospho-flow modulated signaling assay, AML study No. 1 (PBMC at diagnosis, CR vs NR); format: cell-based, human
# [2] = Study No. 1 sensitivity analysis, CR samples
# [3] = Study No. 1 sensitivity analysis, NR samples incl. CRp
molecule,measurement,setting,value
B1,FLT3 ligand-induced pathway activation,[1],decreased FLT3 ligand-induced activation of P13K and Raf/Ras/Erk pathways
same,"Mean Value of CRs, p-Akt Fold",AML blasts; [2],0.10
same,"Mean Value of CRs, p-CREB Fold",AML blasts; [2],0.07
same,"Mean Value of CRs, p-CREB Total Phospho",AML blasts; [2],1.39
same,"Mean Value of CRs, p-Erk Fold",AML blasts; [2],0.08
same,"Mean Value of CRs, p-Plcγ2 Total Phospho",AML blasts; [2],1.81
same,"Mean Value of CRs, p-S6 Fold",AML blasts; [2],0.14
same,"Mean Value of CRs, p-Plcγ2 Fold","AML blasts; Study No. 1 sensitivity analysis, CR samples, negative = down regulation",−0.14
same,"Mean Value of NRs, p-Akt Fold",AML blasts; [3],0.65
same,"Mean Value of NRs, p-CREB Fold",AML blasts; [3],0.36
same,"Mean Value of NRs, p-CREB Total Phospho",AML blasts; [3],2.13
same,"Mean Value of NRs, p-Erk Fold",AML blasts; [3],0.33
same,"Mean Value of NRs, p-Plcγ2 Total Phospho",AML blasts; [3],2.78
same,"Mean Value of NRs, p-S6 Fold",AML blasts; [3],0.83
same,"Mean Value of NRs, p-Plcγ2 Fold","AML blasts; Study No. 1 sensitivity analysis, NR samples incl. CRp, negative = down regulation",−0.08
B2,IL-27 induced activation of the Jak/Stat pathway,[1],minimal IL-27 induced activation of the Jak/Stat pathway
same,"Mean Value of CRs, p-CREB Total Phospho",AML blasts; [2],1.25
same,"Mean Value of CRs, p-Stat1 Total Phospho",AML blasts; [2],0.39
same,"Mean Value of CRs, p-Stat3 Total Phospho",AML blasts; [2],1.01
same,"Mean Value of NRs, p-CREB Total Phospho",AML blasts; [3],2.36
same,"Mean Value of NRs, p-Stat1 Total Phospho",AML blasts; [3],0.81
same,"Mean Value of NRs, p-Stat3 Total Phospho",AML blasts; [3],1.85
same,IL-27-induced levels of total p-Stat1 and p-Stat3,AML blasts; staurosporine resistant samples vs other apoptosis categories,all greater in this apoptotic sub-category
